Test [1] concerns the target T1, human 14-3-3 epsilon isoform 1 (human, UniProt P62258 1-255).
T1 construct: Endogenous protein of H23 human lung cancer cells; Mass spectrometry of the about 27 kDa band identified it as 14-3-3 epsilon, 255 amino acids; also called 14-3-3 protein epsilon; YWHAE
T1 sequence: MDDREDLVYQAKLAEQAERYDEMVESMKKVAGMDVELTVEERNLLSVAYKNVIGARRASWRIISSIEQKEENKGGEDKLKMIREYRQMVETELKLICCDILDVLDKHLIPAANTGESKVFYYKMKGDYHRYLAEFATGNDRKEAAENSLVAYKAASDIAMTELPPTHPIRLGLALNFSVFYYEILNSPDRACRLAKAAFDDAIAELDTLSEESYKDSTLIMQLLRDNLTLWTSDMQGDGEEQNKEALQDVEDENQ
In words: flow cytometry on H23 cells. On the procedure: H23 cells were treated with radiation, 3Gy×3 or 0Gy sham. Cells were then treated with blocking buffer followed by the addition of the 7D4 anti-14-3-3 epsilon monoclonal antibody. Cells were then washed and stained with the secondary antibody conjugated to the fluorescent marker Alexa Fluor 488. Commercial rabbit anti-human 14-3-3 epsilon antibody was used as positive control. Negative controls included 7D4 without secondary antibody and normal mouse IgG with secondary antibody. Shown in FIG. 5 is the percentage of cells staining positive with the anti-14-3-3 antibodies as measured by flow cytometry (FACS).
(In flow cytometry, cells or beads pass a laser one at a time.)

The target of test [2] is T2, peptide comprising amino acids 177-194 of 14-3-3 epsilon isoform 1 (human).
T2 construct: Synthetic 18-mer (Sigma), coated on the ELISA plate
T2 peptide: FSVFYYEILNSPDRACRL
Put plainly: ELISA, peptide coated, 7D4 at 5 µg/ml. On the procedure:
(§1) Two batches of purified anti 14-3-3 epsilon monoclonal antibody 7D4 were used for testing all 31 peptides by ELISA. Three concentrations of each peptide had been used for coating ELISA plate at 30, 15, 10 μg/mL, 50 μl/each well were reacted against diluted purified antibodies at same concentration in all assay. Similar results were obtained for each peptide concentration coated on the ELISA plate.
(§2) Human 14-3-3 Protein epsilon and its isoform SV whole amino acid sequences were obtained through UniProtKB/Swiss-Prot. The Taxonomic identifier 9606 (NCBI) organism is Homosapiens (Human), Gene name is YWHAE. Peptide designed from whole sequences of 14-3-3 protein epsilon and its isoform 14-3-3 protein epsilon SV. The designed peptides contain 18AA from N terminal to C terminal and had 2AA overlapped in each peptide. A total of 31 peptides synthesized by Sigma. The synthesized peptide was prepared in DMSO and then further diluted in PBS for coating an ELISA plate. 30 μg/ml and 10 μg/ml of peptides in PBS were coated on ELISA plates, 50 μL/well. The plates incubated overnight at 4° C., were washed with 0.1% Tween20 PBS and blocked with 3% BSA in same buffer for 1 hour. […] After washing again, substrate ABTS was added to each well to monitor color change by reading at 405 nm in an ELISA reader (Bio-Tek Instrument Inc.). […]

The target of test [3] is T3, peptide comprising amino acids 145-162 of 14-3-3 epsilon SV (human).
T3 construct: Synthetic 18-mer (Sigma), coated on the ELISA plate
T3 peptide: HPIRLGLALNFSVFYYEI
In words: ELISA, peptide coated, 7D4 at 5 µg/ml. On the procedure: as §1, §2
In general terms: ELISA stands for enzyme-linked immunosorbent assay.

Test [4] concerns the target T1, human 14-3-3 epsilon isoform 1. In words: FMAT on H23 cells, hybridoma supernatant.

B1: anti-14-3-3 epsilon mouse monoclonal antibody 7D4 (antibody, V domains shown)
VH: QVQLQQSGAELMKPGASVKISCKATGYTFSSYWIEWVKQRPGHGLEWIGEILPGSGSTNYNEKFKGKATFTADTSSNTAYMQLSSLTSEDSAVYYCARSVWLRRDFAYWGQGTLVTVSA
VL: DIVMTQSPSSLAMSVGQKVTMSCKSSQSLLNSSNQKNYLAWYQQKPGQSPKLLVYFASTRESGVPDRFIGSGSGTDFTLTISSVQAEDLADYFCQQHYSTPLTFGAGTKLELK
notes: also called McAb 7D4; 7D4 mAb
As for B1, the “fold increase in the percentage of cells staining positive after 3Gy×3” value in test [1] worked out at 20 fold. The binding result in test [2] and in test [3] was “binds” each time. The “fold increase in binding on 3Gy×3 treated against sham 0Gy treated tumor cells” value in test [4] was 6 fold.

For the origin of these results see patent publication US20160194388A1 (WASHINGTON UNIVERSITY, published 2016).
